Assay results published in article PMC3089482 (Nucleic Acids Research, 2011).

Target: T1, Archaeoglobus fulgidus PCNA (Archaeoglobus fulgidus, UniProt O29912)
T1 sequence: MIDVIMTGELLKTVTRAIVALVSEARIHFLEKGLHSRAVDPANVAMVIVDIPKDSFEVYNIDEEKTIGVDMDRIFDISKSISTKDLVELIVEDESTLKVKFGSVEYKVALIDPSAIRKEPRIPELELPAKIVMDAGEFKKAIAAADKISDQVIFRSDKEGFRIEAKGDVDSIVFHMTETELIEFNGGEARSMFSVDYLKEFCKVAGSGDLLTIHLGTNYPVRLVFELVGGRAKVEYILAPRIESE
Test: pull-down

B1: GST-RNase HII hinge deletion mutant (ΔSNLR) (enzyme)
chain: MKAGIDEAGKGCVIGPLVVAGVACSDEDRLRKLGVKDSKKLSQGRREELAEEIRKICRTEVLKVSPENLDERMAAKTINEILKECYAEIILRLKPEIAYVDSPDVIPERLSRELEEITGLRVVAEHKADEKYPLVAAASIIAKVEREREIERLKEKFGDFGSGYASDPRTREVLKEWIASGRIPSCVRMRWKTVQKTLDDF
Question: Does B1 bind?
Answer: binds
